The text below walks through data of US20180044415A1 (AbbVie / Abbott, published 2018).

T1: human DLL3 (immobilized human DLL3 or h293-hDLL3 cells) (human, UniProt Q9NYJ7 27-492, limits assumed)
T1 construct: the sentence says 'immobilized human DLL3 or h293-hDLL3 cells'
T1 sequence: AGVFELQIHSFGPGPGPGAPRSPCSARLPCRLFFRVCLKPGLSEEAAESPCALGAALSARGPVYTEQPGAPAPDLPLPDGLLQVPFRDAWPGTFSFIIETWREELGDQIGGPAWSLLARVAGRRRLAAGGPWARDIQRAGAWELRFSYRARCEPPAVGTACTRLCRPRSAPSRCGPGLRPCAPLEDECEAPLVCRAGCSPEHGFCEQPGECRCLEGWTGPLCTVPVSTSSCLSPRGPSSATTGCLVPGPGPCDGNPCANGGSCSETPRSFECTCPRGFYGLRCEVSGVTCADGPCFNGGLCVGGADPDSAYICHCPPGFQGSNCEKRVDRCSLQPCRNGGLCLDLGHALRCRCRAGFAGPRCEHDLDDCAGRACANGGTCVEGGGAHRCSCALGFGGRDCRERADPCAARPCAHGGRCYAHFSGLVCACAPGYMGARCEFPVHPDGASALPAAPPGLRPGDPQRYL

B1: SC16.30 (antibody, V domains shown)
VH: QVTLKESGPGILQPSQTLSLTCSFSGFSLSTSGMGVGWIRQPSGKGLEWLAHIWWDDVKRYKPALKSRLTVSKDTSSNQVFLKIATVDAADTGTYYCARIVDGHPPFAYWGQGTLVTVSA
VL: QIVLTQSPTIMSASLGERVTMTCTASSSVTSSYLHWYQQKPGSSPKLWIYSTSNLASGVPARFSGSGSGTSYSLTISSMEAEDAATYYCHQFHRSPFTFGSGTKLEIK
notes: murine mAb; variable regions only
B2: SC16.45 (antibody, V domains shown)
VH: QVQLQQSGADLVRPGTSVKVSCKASGYSFTNYLIEWVKQRPGQGLEWIGVINPGSGGTHYNEKFKDKAVLTADKSSTTAHMQLSSLTSDDSAVYFCARSPYDYNDGAMDYWGQGTSVTVSS
VL: EIQMTQSPSSMSASLGDRITITCQATQDIVKNLNWYQQKPGKPPSFLIYYATELAEGVPARFSGSGSGSDYSLTISNLESEDFADYHCLQFYEFPFTFGAGTKLELK
notes: as for B1
B3: SC16.29 (antibody, V domains shown)
VH: QVQLQQSGAELARPGASVKLSCKASGYTFTDQYINWVKQRTGQGLEWIGEIYPGRGNTYYNEKFKGKATLTADKSSSTAYMQLSSLTSEDSAVYFCAREDGGYDDAWFAYWGQGTLVTVSA
VL: QIVLTQSPAIMSASPGEKVTITCSASSSVSYMHWFQQKPGTSPKLWIYTTSNLASGVPARFSGSGSGTSYSLTVSRMEAEDAATYYCQQRSLYPYTFGGGTKVEIK
notes: as for B1
B4: SC16.49 (antibody, V domains shown)
VH: QVQLQQSGPELVKPGTLVKISCKASGYTFTSYDINWVKQRPGQGLEWIGWIYPGDGNTKYSEKFKGKATLTADKSSSTAYMQLTSLTSENSAVYFCARDYDYPFAYWGQGTLVTVSA
VL: DIKMTQSPSSMYASLGERVTITCKASQDINSYLSWFQQKPGKSPKTLIYRANRLVDGVPSRFSGSGSGQDYSLTITSLEYEDMGIYYCLQYDEFPLTFGAGTKLELK
notes: as for B1
B5: SC16.42 (antibody, V domains shown)
VH: QIQLVQSGPELKKPGETVKISCKASGYTFTTAGMQWVQKMPGKGFKWIGWINTHSGEPKYADDFKGRFAFSLETSASTAYLQISNLKDEDTATFFCAPLWSDSSFAYWGQGTLVTVSA
VL: DVLMTQSPLSLSVSLGDQASISCRSSQNIVHSDRYTYLEWYLQKPGQSPKLLIYGVSNRFSGVPDRFSGSGSGTDFTLKISRVEAEDMGVYYCFQGTHVPYTFGGGTKLEIK
notes: as for B1
B6: SC16.38 (antibody, V domains shown)
VH: EVQLQQSGAELVKPGASVKLSCTVSGFNIKDTYIHWVKQRPEQGLEWIGRIDPANGNTKYDPKFQGKATITADTSSNTAYLQLSSLTSEDTAVYYCARPTGYFEYWGQGTTLTVSS
VL: QIVLTQSPAIMSASPGEKVTMTCSASSSINYMHWYQQKPGTSPKRWIYDTSKLASGVPARFSGSGSGTSYSLTISSMEAEDAATYYCHQRSTWTFGGGTKLEIK
notes: as for B1
B7: SC16.47 (antibody, V domains shown)
VH: EVQLQQSGPELVKPGASVKISCKASGYSFSRFYMHWVKQSPENSLEWIGEINPSTGGTSYNQKFKGKATLTVDKSSSTAYMQLKSLTSEESAVYYCTRGYGSNCYFDVWGAGTTVTVST
VL: DVVLTQSPLSLPVNIGDQASISCKSTKSLLNSDGFTYLDWYLQRPGQSPQFLIYLVSNRFSGVPDRFSGSGSGTDFTLKISRVEAEDLGVYYCFQSNYLPLTFGAGTKLELR
notes: as for B1
B8: SC16.35 (antibody, V domains shown)
VH: DVQLQESGPGLVKPSQSLSLTCTVTGYSITSDYAWNWIRQFPGNKLEWMGYISYSGSTSYNPSLKSRISITRDTSKNQFFLQLNSVTTEDTATYYCARFYYGSSYAMDYWGQGTSVTVSS
VL: DIQMTQTTSSLSASLGDRVTISCRASQDISNYLNWYQQKPDGTVKLLIYYTSRLHSGVPSRFSGSGSGTDYSLTISNLEQEDIATYFCQQGNTLPYTFGGGTKLEIK
notes: as for B1

The target of this experiment is T1, human DLL3 (immobilized human DLL3 or …). The experiment in a line: hybridoma screening on immobilized human DLL3 or on h293-hDLL3 cells.
Consider B1, for which the binding result is on record as “binds”.
The value for B2 was “binds”.
On to B3, for which the binding result is given as “binds”.
The value for B4 was “binds”; that for B5 was “binds”; that for B6 was “binds”.
The same measure for B7: “binds”; for B8: “binds”.
